Reference: patent publication US20090155164A1 (Amgen, published 2009)
Numbering of substitutions follows the chain as printed. Read-outs that look alike come from different tables or passages of the source.

B1: anti-c-fms hybridoma antibody 2.360 (antibody, IgG2, V domains shown)
VH: QVQLVQSGAEVKKPGASVKVSCKVSGYTLTELSMHWVRQAPGKGLEWMGGFDPEDGETIYAQKFQGRVTMTEDTSTDTVYMELSSLRSEDTAVYYCATGVMITFGGVIVGHSYYGMDVWGQGTTVTVSS
VL: DIQMTQSPSSLSASVGDRVTITCRASQGINNYLAWYQQKPGKVPQLLIYVASTLQSGVPSRFSGSGSGTDFTLTISSLQPEDVATYYCQKYNSGPFTFGPGTKVDIK
notes: Hybridoma IgG2 (cohort 2)
B2: anti-c-fms hybridoma antibody 1.134 (antibody, IgG1, V domains shown)
VH: QVQLVESGGGVVQPGRSLRLSCAASGFTFSSYGMHWVRQAPGKGLEWVAVIWYDGSNKYYADSVKGRFTISRDNSKNTLYLQMNSLRAEDTAVYYCASSSWSYYGMDVWGQGTTVTVSS
VL: DIQMTQSPSSLSASVGDRVTITCQASQDINNYLNWYQQKPGKAPKLLIYDASNLEIGVPSRFSGSGSGTDFIFTISSLQPEDIATYYCQQYDNFPFTFGGGTKVEIK
notes: Hybridoma IgG1 (cohort 1); also called 1.134.1
B3: anti-c-fms hybridoma antibody 2.475 (antibody, IgG2, V domains shown)
VH: B2 VH with S30I, S98D, W101G, S102D
VL: B2 VL with T5I, Q27H, N30S, L46F, Y49S, I56T, I72T, F94L, F96L
notes: Hybridoma IgG2 (cohort 2); also called 2.475.2
B4: anti-c-fms hybridoma antibody 1.143 (antibody, IgG1, V domains shown)
VH: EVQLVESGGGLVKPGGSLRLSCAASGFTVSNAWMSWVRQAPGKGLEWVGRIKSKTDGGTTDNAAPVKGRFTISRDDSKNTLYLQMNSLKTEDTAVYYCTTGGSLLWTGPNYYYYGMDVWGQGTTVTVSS
VL: DIQMTQSPSSLSASVGDRVTITCQASQDINNYLNWYQQKPGKAPKLLIYDTSNLEPGVPSRFSGSGSGTDFTFTISSLQPEDIATYYCQQYDNLLTFGQGTRLEIK
notes: Hybridoma IgG1 (cohort 1); also called 1.143.2; 1.143.1
B5: anti-c-fms hybridoma antibody 1.109 (antibody, V domains shown)
VH: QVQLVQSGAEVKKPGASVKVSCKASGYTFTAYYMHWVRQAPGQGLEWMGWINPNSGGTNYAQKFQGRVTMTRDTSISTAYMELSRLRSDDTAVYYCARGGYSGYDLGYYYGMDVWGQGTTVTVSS
VL: DIQMTQSPSSLSASVGDRVTITCQASQNISNFLDWYQQKPGKAPNLLIYDASDLDPGVPSRFSGSGSGTDFTFTISSLQPEDIATYYCQQYVSLPLTFGGGTKVEIK
notes: Hybridoma IgG1 (cohort 1)

How the values were obtained:
[1] = target: T1, human c-fms, full length, on cells (human, UniProt P07333 20-972); experiment: cell-based or functional assay
T1 sequence (P07333 20-972): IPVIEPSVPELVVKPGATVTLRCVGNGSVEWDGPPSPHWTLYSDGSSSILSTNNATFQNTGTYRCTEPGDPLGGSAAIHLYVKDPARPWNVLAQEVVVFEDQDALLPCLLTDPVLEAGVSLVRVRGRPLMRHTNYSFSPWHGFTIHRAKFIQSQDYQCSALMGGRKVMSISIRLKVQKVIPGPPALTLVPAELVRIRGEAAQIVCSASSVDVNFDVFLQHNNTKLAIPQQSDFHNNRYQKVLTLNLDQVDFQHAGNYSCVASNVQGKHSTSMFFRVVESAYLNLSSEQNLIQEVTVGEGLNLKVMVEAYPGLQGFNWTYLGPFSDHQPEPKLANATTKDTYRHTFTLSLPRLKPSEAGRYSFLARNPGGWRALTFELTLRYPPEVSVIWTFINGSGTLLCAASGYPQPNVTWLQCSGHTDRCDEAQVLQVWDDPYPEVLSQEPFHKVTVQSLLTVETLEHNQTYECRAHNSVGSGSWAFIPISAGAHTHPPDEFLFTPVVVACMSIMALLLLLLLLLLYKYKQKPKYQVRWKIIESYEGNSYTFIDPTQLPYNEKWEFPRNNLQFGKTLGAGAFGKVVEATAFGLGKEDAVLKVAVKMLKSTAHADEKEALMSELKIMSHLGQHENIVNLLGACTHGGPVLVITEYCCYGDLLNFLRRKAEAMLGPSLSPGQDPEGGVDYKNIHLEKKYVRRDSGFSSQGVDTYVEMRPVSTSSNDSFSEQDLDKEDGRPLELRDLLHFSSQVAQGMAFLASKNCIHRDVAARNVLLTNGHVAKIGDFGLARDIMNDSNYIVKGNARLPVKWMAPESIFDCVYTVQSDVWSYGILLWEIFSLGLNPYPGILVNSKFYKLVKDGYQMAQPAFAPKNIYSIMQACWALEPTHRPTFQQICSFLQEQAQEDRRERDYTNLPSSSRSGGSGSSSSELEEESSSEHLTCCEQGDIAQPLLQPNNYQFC

[2] = target: T2, cynomolgus monkey c-fms on primary bone marrow cells (cynomolgus monkey); experiment: cell-based or functional assay
[3] = target: T3, monomeric human c-fms (residues 1-512)-pHis (human, UniProt P07333 20-512); experiment: Biacore, low resolution; hybridoma mAb captured on anti-human IgG, monomeric c-fms-pHis analyte at 125 nM
T3 construct: Construct stated as residues 1-512; signal stated as amino acids 1-19 and left out; also called human c-fms (1-512).pHIS; monomeric c-fms
T3 sequence (P07333 20-512): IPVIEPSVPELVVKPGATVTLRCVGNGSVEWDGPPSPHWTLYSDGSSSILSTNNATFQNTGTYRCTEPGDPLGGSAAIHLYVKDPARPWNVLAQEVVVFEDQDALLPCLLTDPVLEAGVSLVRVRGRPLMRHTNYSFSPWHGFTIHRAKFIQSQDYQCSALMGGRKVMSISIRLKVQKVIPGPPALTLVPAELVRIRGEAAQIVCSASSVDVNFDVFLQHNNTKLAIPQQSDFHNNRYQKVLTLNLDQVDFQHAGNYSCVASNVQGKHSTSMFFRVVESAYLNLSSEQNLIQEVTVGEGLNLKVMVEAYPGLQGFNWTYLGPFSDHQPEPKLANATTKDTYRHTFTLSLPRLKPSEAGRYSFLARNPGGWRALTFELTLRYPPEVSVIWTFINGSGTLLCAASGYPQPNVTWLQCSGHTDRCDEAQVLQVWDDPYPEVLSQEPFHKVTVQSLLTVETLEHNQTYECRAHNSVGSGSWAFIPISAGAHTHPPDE
Method: Anti-human IgG was immobilized on all four flow cells of a sensor chip using amine coupling. Crude hybridoma samples were diluted into halves and captured on the anti-IgG surface. […] Sequence lineage analyses were also performed on the 29 hybridomas (see, FIG. 2).

[4] = target: T1, human c-fms, full length, on cells; experiment: cell-based or functional assay; remark: listed apart in the source
[5] = target: T2, cynomolgus monkey c-fms on primary bone …; experiment: cell-based or functional assay; remark: listed apart in the source

| Binder | AML-5 bioassay IC50 [1] [nM] | Human CD14+ monocytes bioassay IC50 [1] [nM] | Cynomolgus bone marrow bioassay IC50 [2] [nM] | Kd [3] [nM] | koff [3] [s⁻¹] | kon [3] [M⁻¹ s⁻¹] | AML-5 bioassay IC50 [4] [ng/mL] | Human CD14+ monocytes bioassay IC50 [4] [ng/mL] | Cynomolgus bone marrow bioassay IC50 [5] [ng/mL] |
| --- | --- | --- | --- | --- | --- | --- | --- | --- | --- |
| B1 | 0.027 | 0.067 | 0.053 | 5.6 | 0.000338 | 60500 | 4 | 10 | 8 |
| B2 | 0.007 | < 0.007 | 0.04 | 4.6 | 0.000703 | 153000 | 1 | < 1 | 6 |
| B3 | 0.04 | 0.067 | 0.167 | 4.7 | 0.0014 | 300000 | 6 | 10 | 25 |
| B4 | 0.1 |  | 0.36 | 10 | 0.000559 | 55000 | 15 |  | 54 |
| B5 | 0.005 | 0.02 | 0.073 | 0.1 | 4.36e-05 | 385000 | 0.7 | 3 | 11 |
